Data published in patent US20110064670A1, “METHOD TO IDENTIFY A PATIENT WITH AN INCREASED LIKELIHOOD OF RESPONDING TO AN ANTI-CANCER AGENT” (Genentech, Inc., priority 2009, published 2011).

Tested on: non-tumor bearing mice
Assay: Lymph pulsation frequency assay in non-tumor bearing mice
Assay type: in vivo, mouse
Settings: acute injection, n=6 animals/group (FIG. 6B)
Description: Female Balb-c nude mice from Charles River Laboratory were used at 6-8 weeks of age. To establish baseline pulsation frequency and lymph node loading rates we imaged non-tumor bearing mice. In some cases mice were longitudinally imaged for pulsation, i.e., the same mouse was imaged daily over a 7-day period. Mice were anesthetized with 2% Isoflurane and maintained at 37° C. throughout experiments. A PulseOx probe was attached to the thigh (opposing injection site) to monitor heart rate before running pulsation assays.
For all experiments fluorescent dye injections were performed with 5 mg AlexaFluor680 conjugated to dextran 70 kd (MolecularProbes) in 1 ml sterile PBS. […]
Epi-fluorescence Microscopy Pulsatile flow activity was observed using an epifluorescence microscope (Prairie Technologies) equipped with a Cy5.5 Red filter set (Chroma), Halogen light source (ExFo Excite Series 120), 4× objective lens (Olympus) and a charge coupled device (CCD) camera (S97827, Olympus). […] Pulsation and heart rates were monitored (PulseOx) for stability for 10 minutes before video capture. […]
Digital videos (5 minutes) of pulsation were acquired with PictureFrame software (Optronics) using time lapse settings (282 ms exposure, no inter-frame delay, 5 minutes total acquisition time). Data was analyzed off-line from recorded time lapse videos. […]

B1: recombinant VEGF-C protein: recombinant VEGF-C protein injected acutely in non-tumor bearing mice (protein, UniProt P97953 108-223, looked up)
Vascular endothelial growth …: AHYNTEILKSIDNEWRKTQCMPREVCIDVGKEFGAATNTFFKPPCVSVYRCGGCCNSEGLQCMNTSTGYLSKTLFEITVPLSQGPKPVTISFANHTSCRCMSKLDVYRQVHSIIRR
- lymph pulsation frequency: does not result in any significant change
